Molecular target: activatory Fc gamma receptor III (FcγRIII), mouse (mouse) (UniProt P08508)
Assay: SPR

Chain of UniProt P08508 (P08508 31-261): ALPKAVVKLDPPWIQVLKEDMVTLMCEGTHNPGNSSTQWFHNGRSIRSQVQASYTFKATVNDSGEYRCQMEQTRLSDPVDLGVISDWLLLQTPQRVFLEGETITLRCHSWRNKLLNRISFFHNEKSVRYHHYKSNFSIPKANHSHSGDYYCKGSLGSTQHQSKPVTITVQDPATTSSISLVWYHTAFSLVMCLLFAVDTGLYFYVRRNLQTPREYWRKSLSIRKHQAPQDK

A/I ratio (affinity for activatory FcγRIII against inhibitory FcγRIIb): < 1
Substance: anti-CD25 clone PC-61 rat IgG1 (αCD25-r1) (antibody)

— PMC5437702
